# Source: patent EP4631972A1, “SITE-SPECIFIC COUPLED PEGYLATED INTERLEUKIN-2 MUTANT WITH RECEPTOR AFFINITY PREFERENCE AND USE THEREOF” (priority 2022, dated 2024)
# T1: IL-2αβγ triple receptor (Homo sapiens, UniProt P01589+P14784+P31785)
# T1 construct: Uniprot P01589 1Met-551Ile constructed into plasmid pcDNA3.1/zeo; Uniprot P14784 1Met-551Val constructed into plasmid pcDNA3.1(+); Uniprot P31785 1Met-551Thr was constructed into plasmid pcDNA3.1/zeo; expressed in transfected cells; host or cells: 293EC18 cells, transient co-transfection with pCMV/JAK3 and PGL4.52/STAT5RE
# T1 sequence (P01589 22-272): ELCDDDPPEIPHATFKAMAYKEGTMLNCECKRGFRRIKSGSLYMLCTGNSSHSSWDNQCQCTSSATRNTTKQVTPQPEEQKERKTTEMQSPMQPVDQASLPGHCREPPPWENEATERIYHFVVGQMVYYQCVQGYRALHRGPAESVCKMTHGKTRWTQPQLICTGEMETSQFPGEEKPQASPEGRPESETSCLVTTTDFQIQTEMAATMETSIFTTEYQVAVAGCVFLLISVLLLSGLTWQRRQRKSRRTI
# T1 sequence (P14784 27-551): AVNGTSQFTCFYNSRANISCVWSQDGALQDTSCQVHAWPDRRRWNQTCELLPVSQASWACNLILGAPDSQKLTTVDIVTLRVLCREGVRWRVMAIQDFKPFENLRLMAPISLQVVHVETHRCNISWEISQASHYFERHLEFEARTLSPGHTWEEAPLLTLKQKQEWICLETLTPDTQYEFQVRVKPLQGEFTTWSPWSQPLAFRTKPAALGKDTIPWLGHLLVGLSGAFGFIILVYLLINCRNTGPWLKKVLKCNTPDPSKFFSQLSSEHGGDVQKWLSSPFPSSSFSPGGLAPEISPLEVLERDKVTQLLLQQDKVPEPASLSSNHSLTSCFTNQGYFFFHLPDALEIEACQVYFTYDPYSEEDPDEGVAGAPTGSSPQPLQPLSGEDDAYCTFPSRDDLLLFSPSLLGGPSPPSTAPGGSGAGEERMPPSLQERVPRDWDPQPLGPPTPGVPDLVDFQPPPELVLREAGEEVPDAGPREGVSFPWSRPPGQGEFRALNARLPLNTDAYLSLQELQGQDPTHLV
# T1 sequence (P31785 23-369): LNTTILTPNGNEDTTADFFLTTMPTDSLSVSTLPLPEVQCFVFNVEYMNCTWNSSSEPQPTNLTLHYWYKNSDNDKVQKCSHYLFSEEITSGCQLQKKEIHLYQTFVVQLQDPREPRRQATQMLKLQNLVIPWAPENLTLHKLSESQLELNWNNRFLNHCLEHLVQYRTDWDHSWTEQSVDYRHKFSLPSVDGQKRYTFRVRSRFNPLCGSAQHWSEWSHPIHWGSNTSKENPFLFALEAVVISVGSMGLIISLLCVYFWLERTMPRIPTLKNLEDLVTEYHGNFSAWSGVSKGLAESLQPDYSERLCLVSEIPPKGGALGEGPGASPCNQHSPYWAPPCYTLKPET
# Target: T1, IL-2αβγ triple receptor
# Assay: STAT5 reporter gene assay, activation of IL-2αβγ triple receptor in 293EC18/αβγ/JAK3/STAT5 cells
# Type: cell-based
# Settings: Example 4, Figure 6, 80k PEG
# Description: Since the binding of IL-2 to the β and γ subunits of its receptor induces STAT5 phosphorylation, which subsequently leads to dimerization and translocation into the nucleus to promote target gene transcription, this example evaluates the ability of the mutant IL-2 polypeptides to induce signaling through the IL-2 receptor by measuring STAT5 phosphorylation.
# Adherent 293EC18 cells were cultured to about 90% confluence using conventional methods. After trypsin digestion, the cells were resuspended in cell culture medium to 4×10^5 cells/ml and 50 µl/well were added to two 96-well cell culture plates. After incubation at 37°C for 48 h, the supernatant was aspirated and fresh culture medium was added. […]
# Each IL2 mutant was diluted 4-fold in a gradient manner using PBS buffer, with a total of 11 dilutions and a starting concentration of 65.2 nM. […] Bio-Lite Luciferase Assay System reagents that have been mixed and equilibrated to room temperature were added to the cell culture plates to be tested at 100 µl/well, placed on a microplate shaker at 450 rpm to mix for 2 minutes, then allowed to stand at room temperature for 3 minutes, and the chemiluminescence value was detected with an enzyme plate reader.
# The logarithm of the final concentration of each IL-2 mutant sample was used as the X-axis, and the chemiluminescence detection results were used as the Y-axis for plotting. Data were analyzed using the four-parameter logistic regression model in GraphPad Prism 9. Table 2 EC50 values for the activation of the IL-2αβγ triple receptor by PEG-IL-2 mutants as determined by a reporter gene assay.
# According to the method of Example 3, each polyethylene glycol-modified mutant obtained in this example was assessed for the binding preference to the IL2 receptors by a reporter assay. Table 4 EC50 values for the activation of the IL-2αβγ triple receptor by PEG-IL-2 mutants as determined by a reporter gene assay. […]
molecule,measurement,value
"80K-1PEG-IL2-N88R-N77C: IL-2 mutant N88R, N77C, conjugation site 77, PEG molecular weight 80kD (conjugate) APTSSSTKKTQLQLEHLLLDLQMILNGINNYKNPKLTRMLTFKFYMPKKATELKHLQCLEEELKPLEEVLNLAQSKC(PEG 80 kDa)FHLRPRDLISRINVIVLELKGSETTFMCEYADETATIVEFLNRWITFSQSIISTLT",activation activity on the IL-2Rαβγ triple receptor compared with 80K-1PEG-IL2-N88R-D109C,slightly higher activation activity
